Six molecules from article PMC4103454, “FAN1 Activity on Asymmetric Repair Intermediates Is Mediated by an Atypical Monomeric Virus-type Replication-Repair Nuclease Domain” (Cell Reports, 2014) can be followed below.

B1: tryptic fragment 360-507 of hFAN1_360 (domain or fragment, human, UniProt Q9Y2M0 360-507, looked up)
chain: GSSCNGPGQTTGHPYYLRSFLVVLKTVLENEDDMLLFDEQEKGIVTKFYQLSATGQKLYVRLFQRKLSWIKMTKLEYEEIALDLTPVIEELTNAGFLQTESELQELSEVLELLSAPELKSLAKTFHLVNPNGQKQQLVDAFLKLAKQR
notes: human FAN1, protected tryptic fragment identified by mass spectrometry as amino acids 360-507; The three fragments are said to correspond broadly to the SAP, TPR and VRR-Nuc homology regions; also called amino acids 360–507; source: limited tryptic proteolysis of purified hFAN1_360 (from E. coli)
B2: tryptic fragment 795-1,012 of hFAN1_360 (domain or fragment, human, UniProt Q9Y2M0 795-1012, looked up)
chain: SVFVMEAGEAADPTTVLCSVEELALAHYRRSGFDQGIHGEGSTFSTLYGLLLWDIIFMDGIPDVFRNACQAFPLDLCTDSFFTSRRPALEARLQLIHDAPEESLRAWVAATWHEQEGRVASLVSWDRFTSLQQAQDLVSCLGGPVLSGVCRHLAADFRHCRGGLPDLVVWNSQSRHFKLVEVKGPNDRLSHKQMIWLAELQKLGAEVEVCHVVAVGAK
notes: human FAN1, protected tryptic fragment identified by mass spectrometry as amino acids 795-1,012; The three fragments are said to correspond broadly to the SAP, TPR and VRR-Nuc homology regions; also called amino acids 795–1,012; source: limited tryptic proteolysis of purified hFAN1_360 (from E. coli)
B3: psNUC, VRR-Nuc single-domain protein of Psychrobacter (enzyme)
chain: RLKGLTEDEVQTVVMNWSKRQKFKGRPLFDYIHHSPNGGKRAAKIGSSGKRYSPEAAKFKRMGVKAGYPDLIIDIARGAYHGLRIEIKKDGNSYATPAQKERIEMLAKEGYCAVVAKGIDNVISVIQQYIKLGDFDGVSQLTADK
notes: psNUC, standalone VRR-Nuc domain protein of Psychrobacter, UniProt A5WF35; Synthetic gene (GeneART) in pGEX 6P-1; The structure was solved by SAD on a selenomethionine derivative; source: E. coli, purified (glutathione-Sepharose, 3C protease cleavage, Superdex gel filtration)

Data set [1] concerns the target stNUC, VRR-Nuc single-domain protein of Streptococcus equi bacteriophage P9 (Streptococcus equi bacteriophage P9). As to the kind of experiment: AUC; sedimentation velocity, 50,000 rpm, 277 K, 50 mM Tris/HCl pH 8.0, 300 mM NaCl, 0.50 mM TCEP, interference optics, SEDFIT c(s) and c(M).
Data set [2] has as its target saNUC, VRR-Nuc single-domain protein of Salmonella enteritidis typing phage 3 (Salmonella enteritidis typing phage 3). Described as above.
For data set [3], the system named is psNUC. As to the kind of experiment: EMSA. To be noted: stoichiometric binding at 1 nM DNA; 'indicative of a subnanomolar' KD; EMSA: 1 nM radiolabelled DNA, 20 C, 30 min, binding buffer in Supplemental Information (composition and pH not in material); 2.5% Ficoll-400, 8% native PAGE in …. (In general: Mobility shift assays separate free from complexed probe on a gel.)

In data set [4] the test system is stNUC. In words: EMSA. To be noted: EMSA: 1 nM radiolabelled DNA, 20 C, 30 min, binding buffer in Supplemental Information (composition and pH not in material); 2.5% Ficoll-400, 8% native PAGE in ….
For data set [5], the target named is B2. As to the kind of experiment: SEC; S200 gel filtration of a preparative scale tryptic digest of hFAN1_360; SDS-PAGE of fractions across the peak. To be noted: both partners purified.
For data set [6], the target named is T1, tryptic fragment 515-790 of hFAN1_360 (human, UniProt Q9Y2M0 515-790).
T1 construct: human FAN1, protected tryptic fragment identified by mass spectrometry as amino acids 515-790; The three fragments are said to correspond broadly to the SAP, TPR and VRR-Nuc homology regions; also called amino acids 515–790; source: limited tryptic proteolysis of purified hFAN1_360 (from E. coli)
T1 sequence (looked up): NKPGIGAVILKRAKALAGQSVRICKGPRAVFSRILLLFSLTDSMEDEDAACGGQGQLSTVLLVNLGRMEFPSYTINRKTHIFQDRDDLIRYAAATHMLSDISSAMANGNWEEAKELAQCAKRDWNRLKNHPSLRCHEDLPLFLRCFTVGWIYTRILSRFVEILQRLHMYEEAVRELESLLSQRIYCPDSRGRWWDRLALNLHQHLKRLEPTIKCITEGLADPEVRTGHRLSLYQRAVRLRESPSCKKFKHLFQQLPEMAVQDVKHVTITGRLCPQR
Described as above. To be noted: both partners purified.

Data set [7] concerns the molecule itself. In words: AUC; sedimentation velocity as above, psNUC at concentrations above 70 uM; dimer to tetramer.
Data set [8] concerns the molecule itself. As to the kind of experiment: AUC; sedimentation velocity, 50,000 rpm, 277 K, 50 mM Tris/HCl pH 8.0, 300 mM NaCl, 0.50 mM TCEP, interference optics, SEDFIT c(s) and c(M).

For orientation: stoichiometry N means the number of molecules, sites or subunits per partner or assembly. Regarding “stNUC, VRR-Nuc single-domain protein of Streptococcus equi bacteriophage P9 (enzyme)”, the stoichiometry N in data set [1] came to 2.
“saNUC, VRR-Nuc single-domain protein of Salmonella enteritidis typing phage 3 (enzyme)” displayed a stoichiometry N in data set [2] of 2.
As a reminder, the Kd is the constant that tells how readily two partners part at equilibrium. With four-way DNA junction (HJ), the results for the Kd in data set [3] and in data set [4] were less than 1 nM and 200 nM, respectively.
As to B1, the binding result in data set [5] and in data set [6] was “binds” in each case.
For B2, the binding result in data set [6] is given as “binds”.
As for B3, the figures for the “stoichiometry N” value in data set [7] and in data set [8] were 4 and 2, respectively.
